Data set [1] concerns the molecule itself. The experiment in a line: SEC; Superdex 200 in 10 mM Tris HCl, 300 mM NaCl, 2 mM BME, pH 8.0, 0.5 mL/min; size of the multimer estimated from the elution volume.
Data set [2] deals with the molecule itself. The experiment in a line: two-hybrid; Gal4 DNA-binding domain (pGBT9) and Gal4 transcription activation domain (pGAD424) fusions in yeast strain Y187; beta-galactosidase specific activity in cell extracts, Miller units.

Values joined by “and” are separate entries in the source; they are usually repeats but may differ in a detail not shown here. Equal values may be shown once.

B1: HsRAD52-S346X, His-tagged, bacterially expressed (domain or fragment, human, UniProt P43351 1-345, looked up)
chain: MSGTEEAILGGRDSHPAAGGGSVLCFGQCQYTAEEYQAIQKALRQRLGPEYISSRMAGGGQKVCYIEGHRVINLANEMFGYNGWAHSITQQNVDFVDLNNGKFYVGVCAFVRVQLKDGSYHEDVGYGVSEGLKSKALSLEKARKEAVTDGLKRALRSFGNALGNCILDKDYLRSLNKLPRQLPLEVDLTKAKRQDLEPSVEEARYNSCRPNMALGHPQLQQVTSPSRPSHAVIPADQDCSSRSLSSSAVESEATHQRKLRQKQLQQQFRERMEKQQVRVSTPSAEKSEAAPPAPPVTHSTPVTVSEPLLEKDFLAGVTQELIKTLEDNSEKWAVTPDAGDGVVKP
notes: RAD52, human, naturally occurring truncating variant S346X (stop codon in place of S346); pET28b construct; also called pLAY970; source: E. coli Artic Express, purified (Ni-NTA, heparin, Superdex 200)
B1: the stoichiometry N – broadly, a count of units in the complex or per binding partner – in data set [1] was ~6 subunits and ~8 subunits.

B2: HsRAD52 (human RAD52), wild type, Gal4 fusion proteins (natural protein, UniProt P43351 1-418, looked up)
chain: MSGTEEAILGGRDSHPAAGGGSVLCFGQCQYTAEEYQAIQKALRQRLGPEYISSRMAGGGQKVCYIEGHRVINLANEMFGYNGWAHSITQQNVDFVDLNNGKFYVGVCAFVRVQLKDGSYHEDVGYGVSEGLKSKALSLEKARKEAVTDGLKRALRSFGNALGNCILDKDYLRSLNKLPRQLPLEVDLTKAKRQDLEPSVEEARYNSCRPNMALGHPQLQQVTSPSRPSHAVIPADQDCSSRSLSSSAVESEATHQRKLRQKQLQQQFRERMEKQQVRVSTPSAEKSEAAPPAPPVTHSTPVTVSEPLLEKDFLAGVTQELIKTLEDNSEKWAVTPDAGDGVVKPSSRADPAQTSDTLALNNQMVTQNRTPHSVCHQKPQAKSGSWDLQTYSADQRTTGNWESHRKSQDMKKRKYDPS
notes: RAD52, human, wild type; no chain carries both; Probably the whole protein; also called pGBT9-HsRAD52; pGAD424-HsRAD52; source: yeast two-hybrid fusion, yeast strain Y187
Take B2: in data set [2], the “beta-galactosidase activity, fold above background” value was 80 fold.

B3: HsRAD52_(1-212), the N-terminal 212 amino acids of HsRAD52 (domain or fragment, human, UniProt P43351 1-212, looked up)
chain: MSGTEEAILGGRDSHPAAGGGSVLCFGQCQYTAEEYQAIQKALRQRLGPEYISSRMAGGGQKVCYIEGHRVINLANEMFGYNGWAHSITQQNVDFVDLNNGKFYVGVCAFVRVQLKDGSYHEDVGYGVSEGLKSKALSLEKARKEAVTDGLKRALRSFGNALGNCILDKDYLRSLNKLPRQLPLEVDLTKAKRQDLEPSVEEARYNSCRPNM
notes: RAD52, human, N-terminal 212 amino acids (1-212); pET28b construct; also called pLAY855; source: E. coli Artic Express, purified (Ni-NTA, heparin, Superdex 200)
For B3, the “stoichiometry N” value in data set [1] was 13 subunits and 14 subunits.

B4: HsRAD52-G59R_(1-212), the N-terminal 212 amino acids of HsRAD52-G59R (domain or fragment, human, UniProt P43351 1-212, looked up)
chain: MSGTEEAILGGRDSHPAAGGGSVLCFGQCQYTAEEYQAIQKALRQRLGPEYISSRMAGRGQKVCYIEGHRVINLANEMFGYNGWAHSITQQNVDFVDLNNGKFYVGVCAFVRVQLKDGSYHEDVGYGVSEGLKSKALSLEKARKEAVTDGLKRALRSFGNALGNCILDKDYLRSLNKLPRQLPLEVDLTKAKRQDLEPSVEEARYNSCRPNM
notes: RAD52, human, N-terminal 212 amino acids (1-212) with the naturally occurring variant G59R; pET28b construct; also called pLAY971; source: E. coli Artic Express, purified (Ni-NTA, heparin, Superdex 200)
Take B4: in data set [1], the “stoichiometry N” value is 13 subunits and 14 subunits.

The values above are taken from publication PMC7517009, “Variants of the human RAD52 gene confer defects in ionizing radiation resistance and homologous recombination repair in budding yeast” (Microbial Cell, 2020).
